Here are results for one substance from paper PMC9220312.

In this test the target is mouse thrombomodulin (endogenous, lung) (mouse (endogenous in mouse lung)) (UniProt P15306).
Sequence of UniProt P15306 (P15306 17-577): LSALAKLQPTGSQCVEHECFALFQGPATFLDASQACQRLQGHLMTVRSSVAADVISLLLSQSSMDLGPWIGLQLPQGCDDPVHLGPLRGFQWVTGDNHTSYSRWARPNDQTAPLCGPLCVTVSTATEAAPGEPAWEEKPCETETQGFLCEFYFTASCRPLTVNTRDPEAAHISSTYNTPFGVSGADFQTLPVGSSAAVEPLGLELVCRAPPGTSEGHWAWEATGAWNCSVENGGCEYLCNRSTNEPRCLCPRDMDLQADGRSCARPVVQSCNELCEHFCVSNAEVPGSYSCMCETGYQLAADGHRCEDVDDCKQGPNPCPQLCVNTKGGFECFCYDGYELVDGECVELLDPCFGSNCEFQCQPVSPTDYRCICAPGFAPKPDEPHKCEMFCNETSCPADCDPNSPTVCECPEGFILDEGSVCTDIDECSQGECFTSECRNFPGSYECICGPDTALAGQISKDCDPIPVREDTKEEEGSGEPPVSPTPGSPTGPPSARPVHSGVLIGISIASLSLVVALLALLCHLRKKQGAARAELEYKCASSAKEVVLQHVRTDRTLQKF

The substance “recombinant human His-tagged fragment of Angiopoietin-2 (ab220589, Abcam) (from UniProt O15123 19-496) (domain or fragment)” yielded a tail bleeding time in mice 2 h after i.p. injection of 8 nmol human ANGPT2 of 50%.
